Laboratory results reported in PMC4839367.

Molecular target: Ad5D24 oncolytic adenovirus (viral particle, capsid) (human adenovirus serotype 5) (UniProt P04133)
Assay: SPR

UniProt P04133, sequence (P04133 whole entry, looked up): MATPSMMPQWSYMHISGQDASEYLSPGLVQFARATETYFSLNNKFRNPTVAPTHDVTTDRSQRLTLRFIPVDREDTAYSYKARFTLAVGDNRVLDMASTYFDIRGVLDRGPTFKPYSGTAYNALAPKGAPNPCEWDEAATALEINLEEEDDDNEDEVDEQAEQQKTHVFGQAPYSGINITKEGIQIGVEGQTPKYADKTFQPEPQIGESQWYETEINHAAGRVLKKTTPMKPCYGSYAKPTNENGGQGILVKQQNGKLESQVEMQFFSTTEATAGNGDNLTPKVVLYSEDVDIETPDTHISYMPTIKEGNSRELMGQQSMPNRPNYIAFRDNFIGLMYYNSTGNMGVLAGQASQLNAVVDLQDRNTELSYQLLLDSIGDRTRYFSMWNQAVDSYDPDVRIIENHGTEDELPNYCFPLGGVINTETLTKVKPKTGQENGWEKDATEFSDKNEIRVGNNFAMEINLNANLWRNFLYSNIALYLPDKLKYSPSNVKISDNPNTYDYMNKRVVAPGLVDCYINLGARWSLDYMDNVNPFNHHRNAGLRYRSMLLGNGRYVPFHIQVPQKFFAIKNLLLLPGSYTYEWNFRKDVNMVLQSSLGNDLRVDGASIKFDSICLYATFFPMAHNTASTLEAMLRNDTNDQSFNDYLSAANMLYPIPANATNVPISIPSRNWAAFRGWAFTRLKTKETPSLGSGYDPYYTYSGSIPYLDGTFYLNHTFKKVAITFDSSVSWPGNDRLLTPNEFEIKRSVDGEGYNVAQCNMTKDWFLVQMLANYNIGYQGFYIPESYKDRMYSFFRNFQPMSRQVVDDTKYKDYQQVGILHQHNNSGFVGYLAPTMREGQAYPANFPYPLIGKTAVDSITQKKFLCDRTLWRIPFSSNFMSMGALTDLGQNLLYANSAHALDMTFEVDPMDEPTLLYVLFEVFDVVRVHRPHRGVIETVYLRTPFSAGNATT

Question: Which Kd does the source give for polyK-SIINFEKL (peptide) here?
Answer: 2880 nM
